Experimental data: US20200199241A1 (Chugai, published 2020)
Where a chain is given by its changes, count along the chain named.

B1: IgG1-F379 (antibody)
heavy: QVQLQESGPGLVKPSETLSLTCAVSGHSISHDHAWSWVRQPPGEGLEWIGFISYSGITNYNPSLQGRVTISRDNSKNTLYLQMNSLRAEDTAVYYCARSLARTTAMDYWGEGTLVTVSSASTKGPSVFPLAPSSKSTSGGTAALGCLVKDYFPEPVTVSWNSGALTSGVHTFPAVLQSSGLYSLSSVVTVPSSSLGTQTYICNVNHKPSNTKVDKKVEPKSCDKTHTCPPCPAPELLGGPKVFLFPPKPKDTLWISREPEVTCVVVDVSHEDPEVKFNWYVDGVEVHNAKTKPREEQYNSTYRVVSVLTPLHADWLNGKEYKCKVSNKALPAPIEKTISKAKGQPREPQVYTLPPSRDELTKNQVSLTCLVKGFYPSDIAVEWESNGQPENNYKTTPPVLDSDGSFFLYSKLTVDKSRWQQGNVFSCSVYHEALHYHYTQKSLSLSP
light: not shown
notes: EU numbering; copies: 2 + 2
B2: IgG1-F442 (antibody)
heavy: B1 heavy with K241S, W254M, E258T, P259A, P310V, A313H, Y430L
light: not shown
notes: EU numbering; copies: 2 + 2
B3: IgG1-F387 (antibody)
heavy: B1 heavy with K241S, W254Y, E258T, L311D, A313Q, Y430M
light: not shown
notes: EU numbering; copies: 2 + 2
B4: IgG1-F425 (antibody)
heavy: B1 heavy with K241S, W254M, E258T, P259A, L311E, A313Q, Y430L
light: not shown
notes: EU numbering; copies: 2 + 2
B5: IgG1-F396 (antibody)
heavy: B1 heavy with W254Y, E258T, D272F, N288E, T309Q, P310V, Y430I
light: not shown
notes: EU numbering; copies: 2 + 2
B6: IgG1-F403 (antibody)
heavy: B1 heavy with K241S, W254M, E258T, P259V, T309A, P310V, A313Q, Y430L, Y436W
light: not shown
notes: EU numbering; copies: 2 + 2
B7: IgG1-F438 (antibody)
heavy: B1 heavy with K241S, W254M, E258T, P259A, T309Q, P310V, A313Q
light: not shown
notes: EU numbering; copies: 2 + 2
B8: IgG1-F423 (antibody)
heavy: B1 heavy with K241S, W254Y, E258T, T309W, P310V, A313H, Y430M
light: not shown
notes: EU numbering; copies: 2 + 2
B9: IgG1-F446 (antibody)
heavy: B1 heavy with K241S, W254M, E258T, P259A, T309A, P310V, A313H, Y430L
light: not shown
notes: EU numbering; copies: 2 + 2
B10: IgG1-F432 (antibody)
heavy: B1 heavy with K241S, W254M, E258T, P259V, T309Q, P310V, N327G, Y430V
light: not shown
notes: EU numbering; copies: 2 + 2
B11: IgG1-F430 (antibody)
heavy: B1 heavy with K241S, W254Y, E258T, P259V, T309Q, P310V, A313Q
light: not shown
notes: EU numbering; copies: 2 + 2
B12: IgG1-F388 (antibody)
heavy: B1 heavy with K241S, W254Y, E258T, L311A, A313Q, Y430M
light: not shown
notes: EU numbering; copies: 2 + 2
B13: IgG1-F413 (antibody)
heavy: B1 heavy with K241S, W254M, E258T, P259V, T309P, P310V, A313Q, Y430L
light: not shown
notes: EU numbering; copies: 2 + 2
B14: IgG1-F448 (antibody)
heavy: B1 heavy with K241S, W254M, E258T, P259A, N288E, T309A, P310V, A313Q, Y430L
light: not shown
notes: EU numbering; copies: 2 + 2
B15: IgG1-F420 (antibody)
heavy: B1 heavy with K241S, W254Y, E258T, T309A, P310V, A313H, P389E, Y430M
light: not shown
notes: EU numbering; copies: 2 + 2
B16: IgG1-F435 (antibody)
heavy: B1 heavy with K241S, W254M, E258T, P259V, T309Q, P310V, N327G, Y430F
light: not shown
notes: EU numbering; copies: 2 + 2
B17: IgG1-F424 (antibody)
heavy: B1 heavy with W254M, E258T, P259A, A313Q, Y430L
light: not shown
notes: copies: 2 + 2
B18: IgG1-F411 (antibody)
heavy: B1 heavy with K241S, W254M, E258T, P259V, T309N, P310V, A313Q, Y430L
light: not shown
notes: EU numbering; copies: 2 + 2
B19: IgG1-F449 (antibody)
heavy: B1 heavy with W254Y, E258T, D272F, T309P, P310V, A313Q, N327G
light: not shown
notes: EU numbering; copies: 2 + 2
B20: IgG1-F428 (antibody)
heavy: B1 heavy with K241S, W254Y, E258T, P259V, T309Q, P310V, A313Q, Y430L
light: not shown
notes: EU numbering; copies: 2 + 2
B21: IgG1-F394 (antibody)
heavy: B1 heavy with W254Y, E258T, T309Q, P310V, Y430I
light: not shown
notes: EU numbering; copies: 2 + 2
B22: IgG1-F402 (antibody)
heavy: B1 heavy with K241S, W254M, E258T, P259V, T309Q, P310V, A313Q, Y430L, Y436W
light: not shown
notes: EU numbering; copies: 2 + 2
B23: IgG1-F408 (antibody)
heavy: B1 heavy with K241S, W254M, E258T, P259V, N288E, P310V, A313Q, Y430L
light: not shown
notes: EU numbering; copies: 2 + 2
B24: IgG1-F429 (antibody)
heavy: B1 heavy with K241S, W254Y, E258T, P259V, T309Q, P310V, A313Q, Y430M
light: not shown
notes: EU numbering; copies: 2 + 2
B25: IgG1-F440 (antibody)
heavy: B1 heavy with K241S, W254M, E258T, P259V, N288E, T309Q, P310V, N327G, Y430L
light: not shown
notes: EU numbering; copies: 2 + 2
B26: IgG1-F380 (antibody)
heavy: B1 heavy with N288E, A313Q
light: not shown
notes: EU numbering; copies: 2 + 2
B27: IgG1-F441 (antibody)
heavy: B1 heavy with K241S, W254M, E258T, P259A, P310V, Y430L
light: not shown
notes: EU numbering; copies: 2 + 2
B28: IgG1-F410 (antibody)
heavy: B1 heavy with K241S, W254M, E258T, P259V, T309H, P310V, A313Q, Y430L
light: not shown
notes: EU numbering; copies: 2 + 2
B29: IgG1-F386 (antibody)
heavy: B1 heavy with K241S, W254Y, E258T, L311E, A313Q, Y430M
light: not shown
notes: EU numbering; copies: 2 + 2
B30: IgG1-F406 (antibody)
heavy: B1 heavy with K241S, W254M, E258T, P259A, T309Q, P310V, L311R, A313Q, Y430L
light: not shown
notes: EU numbering; copies: 2 + 2

Biological target: T1, human FcRn (soluble human FcRn complexed with β2-microglobulin) (human, UniProt P61769 21-119, limits assumed)
T1 construct: also called hFcRn
Assay: SPR, pH 7.0;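 note: antibodies captured on a Protein L sensor chip with human FcRn injected as analyte, KD calculated from fitted association and dissociation rate constants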

Row | Kd | Binder
1 | 9 nM | B1
2 | 200 nM | B2
3 | 150 nM | B3
4 | 80 nM | B4
5 | 20 nM | B5
6 | 51 nM | B6
7 | 36 nM | B7
8 | 84 nM | B8
9 | 110 nM | B9
10 | 920 nM | B10
11 | 81 nM | B11
12 | 70 nM | B12
13 | 120 nM | B13
14 | 53 nM | B14
15 | 150 nM | B15
16 | 25 nM | B16
17 | 94 nM | B17
18 | 130 nM | B18
19 | 570 nM | B19
20 | 80 nM | B20
21 | 53 nM | B21
22 | 23 nM | B22
23 | 250 nM | B23
24 | 37 nM | B24
25 | 15 nM | B25
26 | 5.6 nM | B26
27 | 180 nM | B27
28 | 220 nM | B28
29 | 32 nM | B29
30 | 150 nM | B30
